Entries after “also recorded” stand apart in the source; their conditions may differ.
Legend:
[1] = test system: ELP(30TAG)-GFP; test: ELP expression and purification, yield of purified ELP(30TAG)-GFP; type: cell-based, E. coli; conditions: for yield of purified ELP(30TAG)-GFP compared to expression of WT protein: small batch cultures
Procedure: Before batch expression, starter cultures (2 mL) of 2×YT media supplemented with 30 μg/mL kanamayacin and 20 μg/mL chloramphenicol were inoculated with transformed cells from a fresh agar plate or from stocks stored at −80° C., and incubated overnight at 34° C. while shaking at 250 rpm. Expression cultures (250 ml flasks containing 50 ml of 2×YT media, antibiotics, 0.2% arabinose and 1 mM of the nsAA) were inoculated with 0.5 ml of the starter culture and incubated at 34° C. for 4 h and then reporter protein expression was induced with 60 μg/mL anhydrotetracyclin.
Cells were harvested 24 h after inoculation by centrifugation at 4,000 g for 15 min at 4° C. The cell pellet was resuspended by vortex in ˜1.5 mL PBS buffer and stored at −80° C. or immediately purified. For purification, resuspended pellets were lysed by ultrasonic disruption (9 cycles of 10 s sonication separated by 40 s intervals). Poly(ethyleneimine) (0.2 mL of 10% solution) was added to each lysed suspension before centrifugation at 15,000 g for 3 min to separate cell debris from the soluble cell lysate.
All ELP constructs were purified by a modified Inverse Transition Cycling (ITC) protocol consisting of multiple “hot” and “cold” spins using sodium citrate to trigger the phase transition. Before purification, the soluble cell lysate was incubated for 1-2 min at ˜65° C. to denature native E. coli proteins. For “hot” spins, the ELP phase transition was triggered by adding sodium citrate to the cell lysate or the product of a previous cycle of ITC at a final concentration of ˜0.5 M. The solutions were then centrifuged at 14,000 g for 3 min and the pellets were resuspended in PBS, followed by a 3-5 min “cold” spin performed without addition of sodium citrate to remove denatured contaminant. Additional rounds of ITC were carried out as needed until sufficient purification was achieved.
Protein concentration was calculated by measuring the OD280 of purified protein stocks according to the following extinction coefficients for ELP(30TAG)-GFP.

[2] = test system: ELP(30TAG)-GFP; test: Intact cell GFP fluorescence, ELP(30TAG)-GFP production; type: cell-based, E. coli; conditions: plasmid-based pAcF OTS in the GRO
Procedure: (§1) Liquid cell cultures of strains harboring chromosomally integrated OTSs and GFP reporter plasmids were inoculated from frozen stocks and grown to confluence overnight. Cultures were then inoculated at 1:20 dilution in LBmin media supplemented with 30 μg/ml kanamycin. Strains were inoculated by addition of 1:20 confluent cell culture (grown overnight) and allowed to grow at 34° C. to an OD600 of 0.5-0.8 in a shaking plate incubator at 650 r.p.m (˜3 h). AARS expression was then induced by the addition of 0.2% arabinose, GFP expression was induced by the addition of 60 ng/ul anhydrotetracycline, and the appropriate nsAA was added to a concentration of 1 mM. Cells were incubated at 34° C. for an additional 16 h. Liquid cell cultures of strains harboring plasmid-based OTSs and GFP or ELP-GFP reporter plasmids were inoculated from frozen stocks and grown to confluence overnight. Cultures were then inoculated at 1:20 dilution in 2×YT media supplemented with 30 μg/ml kanamycin and 20 μg/ml chloramphenicol. […] Cells were allowed to grow at 34° C. to an OD600 of 0.5-0.8 in a shaking plate incubator at 650 r.p.m (˜3 h), reporter protein expression was then induced by the addition of 60 ng/ul anhydrotetracycline, and cells were incubated at 34° C. for an additional 16 h.
(§2) For 384 well plate-based assays, fluorescence and OD600 were directly measured following expression. For 96 well plate-based assays, cells were centrifuged at 4,000 g for 4 min. Supernatant medium was removed and cells were resuspended in PBS. This process was repeated twice with PBS. GFP fluorescence was measured on a Biotek spectrophotometric plate reader using excitation and emission wavelengths of 395 and 509 nm, respectively). Fluorescence signals were normalized by dividing the fluorescence counts by the OD600 reading. The nsAAs used in this study were purchased from Sigma-Aldrich (St. Louis, Mo.), Chemlmpex (Wood Dale, Ill.), and Bachem (Torrance, Calif.). Solutions of nsAAs (50 mM) were made in water or 50 mM NaOH; these stock solutions were diluted 50- or 100-fold (to 1 mM final concentration) into medium used for bacterial growth.

[3] = test system: ELP(10TAG)-GFP; test: Intact cell GFP fluorescence, ELP(10TAG)-GFP production; set-up: species or system E. coli; conditions: plasmid-based pAcF OTS in the GRO
Procedure: Liquid cell cultures of strains harboring chromosomally integrated OTSs and GFP reporter plasmids were inoculated from frozen stocks and grown to confluence overnight. Cultures were then inoculated at 1:20 dilution in LBmin media supplemented with 30 μg/ml kanamycin. Strains were inoculated by addition of 1:20 confluent cell culture (grown overnight) and allowed to grow at 34° C. to an OD600 of 0.5-0.8 in a shaking plate incubator at 650 r.p.m (˜3 h). AARS expression was then induced by the addition of 0.2% arabinose, GFP expression was induced by the addition of 60 ng/ul anhydrotetracycline, and the appropriate nsAA was added to a concentration of 1 mM. Cells were incubated at 34° C. for an additional 16 h. Liquid cell cultures of strains harboring plasmid-based OTSs and GFP or ELP-GFP reporter plasmids were inoculated from frozen stocks and grown to confluence overnight. Cultures were then inoculated at 1:20 dilution in 2×YT media supplemented with 30 μg/ml kanamycin and 20 μg/ml chloramphenicol. […]
For 384 well plate-based assays, fluorescence and OD600 were directly measured following expression. […] GFP fluorescence was measured on a Biotek spectrophotometric plate reader using excitation and emission wavelengths of 395 and 509 nm, respectively). Fluorescence signals were normalized by dividing the fluorescence counts by the OD600 reading. […]

[4] = test system: GFP(3TAG); type: cell-based, E. coli; conditions: for GFP(3TAG) fluorescence compared to WT-protein: plasmid-based pAcF OTS in the GRO; for higher GFP(3TAG) production compared with the progenitor enzyme: chromosomally integrated AARS, pAzF
Procedure: as §1, §2

[5] = ATP-PPi exchange assay (amino acid activation); type: biochemical; conditions: nsAA pAzF; for Fold change: relative to progenitor pAcFRS
Procedure: A 25 μl ATP-PPi exchange reaction contained the following components: 100 mM HEPES-KOH (pH 7.5), 30 mM KCl, 10 mM MgCl2, 2 mM DTT, 2 mM KF, 2 mM NaPPi, 5 mM ATP, […], 2 μCi/μl of […] (PerkinElmer) and varied concentrations of amino acids (0.25, 0.5, 1.25, 2.5, 5, 10, and 20 mM, respectively). The reactions were incubated at 37° C. Time points were taken at 2 minutes, 5 minutes and 10 minutes by plotting 1 μl aliquots from the reaction immediately to the PEI-cellulose plates (Merck). For each reaction, 1 μl of blank reaction mixture containing no enzymes was set as background. The reaction mixtures were separated on the plates in 1 M urea and 1 M monopotassium phosphate. The plates were then scanned in a Molecular Dynamics Storm 860 phosphorimager (Amersham Biosciences). The ratio of ATP to PPi was determined to monitor reaction progress. The kinetic constants were derived from plotting initial velocity of a series of reactions that contained varied concentrations of amino acids. The data were analyzed by GraFit 5.0 (Erithacus Software).

[6] = test system: tRNA; test: Aminoacylation assay (tRNA charging); type: biochemical; conditions: nsAA pAzF; for Fold change: relative to progenitor pAcFRS
Procedure: Template plasmid containing tRNA gene was purified with the plasmid maxi kit (Qiagen), and 100 μg of plasmid was digested with BstNI (New England Biolabs). The BstNI digested template DNA was purified by phenol chloroform extraction, followed by ethanol precipitation and resolved in double distilled water. A His-tagged T7 RNA polymerase was purified over column of Ni-NTA resin according to manufacturer's instructions (Qiagen). The transcription reaction [40 mM Tris (pH 8); 4 mM each of UTP, CTP, GTP, and ATP at pH 7.0; 22 mM MgCl2; 2 mM spermidine; 10 mM DTT; 6 μg pyrophosphatase (Roche Applied Science); 60 μg/mL BstNI digested DNA template, approximately 0.2 mg/ml T7 RNA polymerase] was performed in 10 ml reaction volumes for overnight at 37° C. The tRNA was purified on 12% denaturing polyacrylamide gel containing 8 M urea and TBE buffer (90 mM Tris, 90 mM boric acid, 2 mM EDTA). UV shadowing illuminates the pure tRNA band, which is excised and extracted three times with 1M sodium acetate pH 5.3 at 4° C. The tRNA extractions were then ethanol precipitated, dissolved in RNase-free distilled water, pooled, and finally desalted using a Biospin 30 column (BioRad). The ratio of aminoacylated tRNA to total tRNA was determined to monitor reaction progress.
The tRNA was refolded by heating to 100° C. for 5 min and slow cooling to room temperature. At 65° C., MgC12, was added to a final concentration of 10 mM to aid folding. A His-tagged CCA adding enzyme was purified over column of Ni-NTA resin according to manufacturer's instructions (Qiagen). 16 μM folded tRNA in 50 mM Tris (pH 8.0), 20 mM MgCl2, 5 mM DTT and 50 μM NaPPi was incubated at room temperature for 1 hour with approximately 0.2 mg/ml CCA-adding enzyme and 1.6 μCi/μl of [α-32P]-labeled ATP (PerkinElmer). The sample was phenol/chloroform extracted and then passed over a Bio-spin 30 column (Bio-Rad) to remove excess ATP.
A 20 μl aminoacylation reaction contained the following components: 50 mM HEPES-KOH (pH 7.2), 25 mM KCl, 10 mM MgCl2, 5 mM DTT, 10 mM ATP, 25 μg/ml pyrophosphatase (Roche Applied Science), 2 mM amino acids. All plateau tRNA aminoacylation levels were determined at 37° C. according to the reactions conditions described above with 500 nM enzyme, 5 μM unlabeled tRNA plus 100 nM 32P-labeled tRNA. Time points were taken at 5 minutes, 20 minutes and 60 minutes by removing 2 μl aliquots from the reaction and immediately quenching the reaction into an ice-cold 3 μl quench solution [0.66 μg/μl nuclease P1 (Sigma) in 100 mM sodium citrate (pH 5.0)]. For each reaction, 2 μl of blank reaction mixture containing no enzymes was added to the quench solution as the start time point. The nuclease P1 mixture was then incubated at room temperature for 30 min and 1 μl aliquots were spotted on PEI-cellulose plates (Merck) and developed in running buffer containing 5% acetic acid and 100 mM ammonium acetate. Radioactive spots for AMP and AA-AMP (representing free tRNA and aminoacyl-tRNA, respectively) were separated and then visualized and quantified by phosphor imaging by a Molecular Dynamics Storm 860 phosphorimager (Amersham Biosciences). The ratio of aminoacylated tRNA to total tRNA was determined to monitor reaction progress.

[7] = test system: GFP(3TAG); test: nsAA library screening, GFP(3TAG) fluorescence in 384 well plates; type: cell-based, E. coli; conditions: GFP(3TAG) production in the presence of pAcF, pAzF and 236 other nsAAs
Procedure: as §1
as §2, with “growth. […]” for “growth.”

Molecule: CC(=O)c1ccc(C[C@H](N)C(=O)O)cc1 [pAcF, p-acetyl-L-phenylalanine, reference compound]
- yield of purified ELP(30TAG)-GFP compared to expression of WT protein ([1]; GRO): 18%
- yield of purified ELP(30TAG)-GFP compared to expression of WT protein ([1]; parent (non-recoded) strain): 8%
- ELP(30TAG)-GFP fluorescence compared to WT-protein [2]: 25%
- ELP(10TAG)-GFP fluorescence compared to WT-protein [3]: 87%
- GFP(3TAG) fluorescence compared to WT-protein [4]: 110%

Molecule: [N-]=[N+]=Nc1ccc(C[C@H](N)C(=O)O)cc1 [pAzF, p-azido-L-phenylalanine, reference compound]
- Yield of purified ELP(30TAG)-GFP ([1]; nsAA pAzF, GRO): too low to allow for purification
- ELP(30TAG)-GFP fluorescence compared to WT-protein [2]: 6%
- ELP(10TAG)-GFP fluorescence compared to WT-protein [3]: 32%
- GFP(3TAG) fluorescence compared to WT-protein [4]: 75%

B1: pAzFRS.1: pAcFRS variant D158V, I159M, L162D, A167Y, SEQ ID NO: 10 (protein)
chain: MDEFEMIKRNTSEIISEEELREVLKKDEKSALIGFEPSGKIHLGHYLQIKKMIDLQNAGFDIIILLADLHAYLNQKGELDEIRKIGDYNKKVFEAMGLKAKYVYGSEFQLDKDYTLNVYRLALKTTLKRARRSMELIAREDENPKVAEVIYPIMQVNVMHYDGVDVYVGGMEQRKIHMLARELLPKKVVCIHNPVLTGLDGEGKMSSSKGNFIAVDDSPEEIRAKIKKAYCPAGVVEGNPIMEIAKYFLEYPLTIKRPEKFGGDLTVNSYEELESLFKNKELHPMRLKNAVAEELIKILEPIRKRL
- Km [5]: 1180 ± 210 µM
- kcat [5]: 4.61 ± 0.18 ×10^−2 s^−1
- Fold change [5]: 2.68
- higher GFP(3TAG) production compared with the progenitor enzyme [4]: ~3.5 fold
- Km [6]: 38 ± 5 µM
- kcat [6]: 0.46 ± 0.18 ×10^−3 s^−1
- Fold change [6]: 1.48
- nsAA specificity (polyspecificity) [7]: specific for pAzF; also recorded: exceptional specificity toward pAzF with almost complete exclusion of any other nsAA; also recorded: both more efficient and more specific for pAzF than previously reported pAzFRSs

B2: pAzFRS.2: pAcFRS variant E107T, F108Y, Q109M, SEQ ID NO: 13 (protein)
chain: MDEFEMIKRNTSEIISEEELREVLKKDEKSALIGFEPSGKIHLGHYLQIKKMIDLQNAGFDIIILLADLHAYLNQKGELDEIRKIGDYNKKVFEAMGLKAKYVYGSTYMLDKDYTLNVYRLALKTTLKRARRSMELIAREDENPKVAEVIYPIMQVNGCHYRGVDVAVGGMEQRKIHMLARELLPKKVVCIHNPVLTGLDGEGKMSSSKGNFIAVDDSPEEIRAKIKKAYCPAGVVEGNPIMEIAKYFLEYPLTIKRPEKFGGDLTVNSYEELESLFKNKELHPMRLKNAVAEELIKILEPIRKRL
- Km [5]: 1250 ± 110 µM
- kcat [5]: 4.13 ± 0.86 ×10^−2 s^−1
- Fold change [5]: 2.26
- higher GFP(3TAG) production compared with the progenitor enzyme [4]: ~12 fold
- Km [6]: 32 ± 11 µM
- kcat [6]: 0.73 ± 0.06 ×10^−3 s^−1
- Fold change [6]: 3.67
- nsAA specificity (polyspecificity) [7]: polyspecific for at least pAcF, pAzF, StyA, 4IF, 4BrF, 4ClF, 4MeF, 4Cf3F, MeY, 4NO2F, 4BuF, BuY, 2NaA, PheF

Reference: patent US10501734B2, “Compositions and methods of use thereof for making polypeptides with many instances of nonstandard amino acids” (Yale University, priority 2014, dated 2019)
